The record followed here is PMC2289474.

In experiment [1] the target is laminin (Engelbreth-Holm-Swarm tumor laminin, free of entactin) (mouse (endogenous in EHS tumor)) (UniProt P19137). In words: sedimentation assay of polymerization.
Experiment [2] addresses laminin/entactin complex (laminin-nidogen complex) of the EHS tumor (mouse (endogenous in EHS tumor)) (UniProt P19137). In words: extraction of laminin from tissue matrix.
The target is the same in experiment [3]. In words: sedimentation assay of polymerization.

In experiment [1], “laminin (Engelbreth-Holm-Swarm tumor laminin, free of entactin), P19137 25-3083; P02469 22-1786; P02468 34-1607” returned a critical concentration of polymerization of 0.1 mg/mL.
In experiment [2], “laminin/entactin complex (laminin-nidogen complex) of the EHS tumor, P19137 25-3083; P02469 22-1786; P02468 34-1607; P10493 29-1245” yielded a concentration of free laminin over the EHS matrix in buffer at 37 C of 0.08 mg/mL and a percent of total laminin of the EHS matrix extracted by 10 mM EDTA of 79%. The critical concentration of polymerization in experiment [3] is 0.1 mg/mL.
